One block for each molecule: values may come before it.
Experiments:
[1] = molecular target: human SEZ6 on patient-derived NTX tumor cells (human) (UniProt Q53EL9); assay: flow cytometry, LU86 NTX tumor cells, dot plot CD324 against MOPC isotype control
[2] = molecular target: human SEZ6 on patient-derived NTX tumor cells (human) (UniProt Q53EL9); assay: flow cytometry, LU64 NTX tumor cells, dot plot CD324 against MOPC isotype control, gate at 10^3
[3] = molecular target: human SEZ6 on patient-derived NTX tumor cells (human) (UniProt Q53EL9); assay: flow cytometry, LU117 NTX tumor cells, dot plot CD324 against MOPC isotype control, gate at 10^3
[4] = molecular target: human SEZ6 overexpressed on HEK-293T cells (human, UniProt Q53EL9 20-994); assay: cell-based or functional assay
[5] = molecular target: T1, recombinant rat SEZ6 ECD with 9-Histidine tag (rat, UniProt Q7TSK2 20-922 (mouse entry)); assay: assay not given
T1 construct: also called rSEZ6-ECD-His; rat recombinant SEZ6-His
T1 chain: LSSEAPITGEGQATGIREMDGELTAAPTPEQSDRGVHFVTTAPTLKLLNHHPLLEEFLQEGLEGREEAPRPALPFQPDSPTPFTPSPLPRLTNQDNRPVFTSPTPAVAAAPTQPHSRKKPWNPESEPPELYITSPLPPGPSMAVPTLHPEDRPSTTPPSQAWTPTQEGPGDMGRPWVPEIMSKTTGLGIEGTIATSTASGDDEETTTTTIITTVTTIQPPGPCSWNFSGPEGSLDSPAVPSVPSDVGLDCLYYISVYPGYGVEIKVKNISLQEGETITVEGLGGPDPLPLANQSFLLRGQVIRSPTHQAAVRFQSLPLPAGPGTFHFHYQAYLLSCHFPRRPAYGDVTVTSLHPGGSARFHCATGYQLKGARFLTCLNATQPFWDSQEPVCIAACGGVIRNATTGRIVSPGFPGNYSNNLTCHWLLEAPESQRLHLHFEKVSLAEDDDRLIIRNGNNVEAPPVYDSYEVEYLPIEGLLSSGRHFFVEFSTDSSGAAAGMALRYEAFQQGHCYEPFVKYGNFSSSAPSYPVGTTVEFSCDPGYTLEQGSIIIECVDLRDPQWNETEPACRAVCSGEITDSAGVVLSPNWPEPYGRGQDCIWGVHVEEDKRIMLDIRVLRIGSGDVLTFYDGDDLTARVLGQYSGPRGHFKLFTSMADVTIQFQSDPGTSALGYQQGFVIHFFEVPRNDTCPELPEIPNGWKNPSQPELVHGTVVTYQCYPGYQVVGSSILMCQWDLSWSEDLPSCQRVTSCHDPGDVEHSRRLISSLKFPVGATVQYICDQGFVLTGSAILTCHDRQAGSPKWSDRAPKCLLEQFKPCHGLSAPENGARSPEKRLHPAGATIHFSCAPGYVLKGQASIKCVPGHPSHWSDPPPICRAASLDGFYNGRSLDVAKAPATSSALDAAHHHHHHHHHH

[6] = molecular target: T2, cynomolgus SEZ6 extracellular domain displayed on yeast (cynomolgus, UniProt Q53EL9 23-925 (human entry)); assay: assay not given
T2 construct: also called cSEZ6; cynomolgus SEZ6 ECD
T2 chain: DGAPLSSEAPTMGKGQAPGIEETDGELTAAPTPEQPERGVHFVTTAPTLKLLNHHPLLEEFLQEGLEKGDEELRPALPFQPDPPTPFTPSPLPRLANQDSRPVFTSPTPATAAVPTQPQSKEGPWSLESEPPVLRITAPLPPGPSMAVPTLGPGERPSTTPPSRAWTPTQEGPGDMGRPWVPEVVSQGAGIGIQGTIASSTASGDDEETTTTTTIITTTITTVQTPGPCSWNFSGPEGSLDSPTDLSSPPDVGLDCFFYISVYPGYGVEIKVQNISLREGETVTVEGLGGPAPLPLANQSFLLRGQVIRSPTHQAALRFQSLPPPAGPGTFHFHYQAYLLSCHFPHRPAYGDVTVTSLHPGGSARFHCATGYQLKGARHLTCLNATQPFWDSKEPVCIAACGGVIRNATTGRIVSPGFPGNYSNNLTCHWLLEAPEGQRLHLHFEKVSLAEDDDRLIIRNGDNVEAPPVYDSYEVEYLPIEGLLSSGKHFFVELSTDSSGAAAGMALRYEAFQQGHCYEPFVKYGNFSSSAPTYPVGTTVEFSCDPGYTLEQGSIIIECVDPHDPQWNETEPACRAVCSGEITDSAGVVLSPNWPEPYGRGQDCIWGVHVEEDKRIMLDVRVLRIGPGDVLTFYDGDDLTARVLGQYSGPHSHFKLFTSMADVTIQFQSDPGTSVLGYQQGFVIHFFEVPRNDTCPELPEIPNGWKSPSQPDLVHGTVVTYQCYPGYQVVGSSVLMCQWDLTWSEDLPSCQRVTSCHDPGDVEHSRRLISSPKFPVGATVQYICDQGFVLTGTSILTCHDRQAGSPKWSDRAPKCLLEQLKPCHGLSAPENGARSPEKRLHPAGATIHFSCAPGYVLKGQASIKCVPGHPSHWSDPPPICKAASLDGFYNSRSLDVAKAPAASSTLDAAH

[7] = molecular target: human SEZ6 on patient-derived NTX tumor cells (human) (UniProt Q53EL9); assay: flow cytometry on LU100 NTX tumor cells; FMO (MFI) of the same line 289
[8] = molecular target: human SEZ6 on patient-derived NTX tumor cells (human) (UniProt Q53EL9); assay: flow cytometry, LU64 NTX tumor cells, dot plot CD324 against SC17.42, gate at 10^3

B1: hSC17.17-ADC1 (antibody, V domains shown)
VH: QVQLVQSGAEVKKPGASVKVSCKASGYTFTDYNMHWVRQAPGQGLEWMGEINPNIGGTGYNQKFKGRVTMTRDTSISTAYMELSRLRSDDTAVYYCARTYSYYSYEFAYWGQGTLVTVSS
VL: EIVLTQSPATLSLSPGERATLSCSASSSVSYMHWYQQKPGQAPRLLIYDTSKLPSGIPARFSGSGSGTDFTLTISSLEPEDFAVYYCQQWSSTPPTFGQGTKLEIK
modifications: PBD dimer (ADC1) through a maleimido linker on reduced Cys residues
in vitro cytotoxicity, IC50 [4]: 11 nM

B2: SC17.46 (antibody, V domains shown)
VH: QVQLQQPGAELVKPGASMKLSCKASGYTFTSYWINWVKQRPGQGLEWIGNIFPDTTTTNYNEKFKSKATLTVDTSSSTAYMQLSSLTSDDSAVYYCAREYYDGTYDAMDYWGQGTSVTVS
VL: SFVMTQTPKFLLVSAGDRVTITCKASQSVNNDVAWYQQKPGQSPKLLIYYASNRYTGVPDRFTGSGYGTDFTFTISTVQAEDLAVYFCQQDYSSPRTFGGGTKLEIK
notes: murine mAb
binding result [5]: no binding
binding result [6]: no binding

The next lines start with the values.

% of cells CD324+ and MOPC+ (upper right quadrant) [1]: 0.483%
% of cells CD324- and MOPC+ (lower right quadrant) [1]: 0.014%
% of cells CD324+ and MOPC+ (upper right quadrant) [2]: 0.597%
% of cells CD324+ and MOPC+ (upper right quadrant) [3]: 0.347%
% of cells CD324- and MOPC+ (lower right quadrant) [3]: 0.05%
Molecule: MOPC (antibody)

Tumor (MFI) [7]: 1400
% of cells CD324+ and SC17.42+ (upper right quadrant) [8]: 27.7%
% of cells CD324- and SC17.42+ (lower right quadrant) [8]: 0.637%
B3: SC17.42 (antibody, from a related filing, V domains shown)
VH: DVKLVESGGGLVRPGGSLKLSCAASGFTFSRYTMSWVRQTPEKRLEWAATINSGGSNTYYPDSVKGRFTISRDNAKNTLFLQMSSLKSEDTAMYYCTNGNHWGQGTTLTVSS
VL: ENVLTQSPAIMSASPGEKVTMTCSASSSVNYMYWYQQKSSTSPKLWIYDTSKLTSGVPGRFSGSGSGNSYSLTISNMEAEDVATYYCFQGSGYPLTFGSGTKLEIK

— US20170369571A1 (AbbVie / Abbott, published 2017)
